Measured values: US20170009288, “METHOD FOR CONTROLLED DNA FRAGMENTATION” (THERMO FISHER SCIENTIFIC BALTICS UAB, published 2017)

B1: Control native Mu transposon end (dsDNA)
DNA 1: GTTTTCGCATTTATCGTGAAACGCTTTCGCGTTTTTCGTGCGTCAGTTCA
DNA 2: TGCTGAACTGACGCACGAAAAACGCGAAAGCGTTTCACGATAAATGCGAAAAC
B2: Transposon No. 9 (dsDNA)
DNA 1: GTTCTCGCATCTATCGTGAAAAGCTTCTCCGTTCTTCGGCCGCCGCTTCA
DNA 2: TGCTGAAGCGGCGGCCGAAGAACGGAGAAGCTTTTCACGATAGATGCGAGAAC

Key:
[1] = biological target: T1, MuA transposase (UniProt P07636 P07636:1-663); experiment: EMSA; strong complex; 2% agarose with BSA and heparin, 1xTBE; assembled 30 C 1 h; conditions: tags: Thermo Scientific F-750 (stand-alone MuA transposase); chain copies: 4; 5' overhang TGCT side of non-transferred strand
Procedure: (§1) In parallel, EMSA analysis was performed for all pre-formed MuA-transposon complexes used in the first experiment (Table 3). DNA shifts resulting from transposome complex formation were analyzed using agarose gel electrophoresis in 2% agarose gel containing 87 μg/ml BSA and 87 μg/ml heparin in 1×TBE buffer. DNA was stained with ethidium bromide. […] Weaker complexes were formed with transposons No. 5, 10, 11.

[2] = biological target: T1, MuA transposase; experiment: EMSA; no apparent complex formation; conditions: tags: Thermo Scientific F-750 (stand-alone MuA transposase); chain copies: 4
Procedure: as §1

T1 sequence (P07636 whole entry, one chain of several): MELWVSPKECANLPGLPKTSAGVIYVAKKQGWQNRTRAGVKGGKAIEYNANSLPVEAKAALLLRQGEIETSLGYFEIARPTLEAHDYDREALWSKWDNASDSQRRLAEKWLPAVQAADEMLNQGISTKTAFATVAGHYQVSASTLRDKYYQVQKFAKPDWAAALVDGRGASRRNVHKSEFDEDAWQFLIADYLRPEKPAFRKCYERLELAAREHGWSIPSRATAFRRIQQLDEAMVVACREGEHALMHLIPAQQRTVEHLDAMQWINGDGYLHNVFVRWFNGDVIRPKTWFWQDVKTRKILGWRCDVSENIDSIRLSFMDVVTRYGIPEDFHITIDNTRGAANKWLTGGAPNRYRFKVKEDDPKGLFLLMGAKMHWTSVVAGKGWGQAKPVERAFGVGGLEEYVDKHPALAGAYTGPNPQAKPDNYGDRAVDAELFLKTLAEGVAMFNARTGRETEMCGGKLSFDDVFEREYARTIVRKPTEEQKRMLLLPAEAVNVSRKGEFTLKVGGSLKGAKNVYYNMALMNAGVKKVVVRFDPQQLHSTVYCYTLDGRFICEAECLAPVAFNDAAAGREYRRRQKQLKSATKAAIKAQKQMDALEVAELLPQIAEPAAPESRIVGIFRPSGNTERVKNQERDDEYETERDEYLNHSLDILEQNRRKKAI

Row | Binder | binding result [1] | binding result [2]
1 | B1 | binds | –
2 | B2 | – | no binding
